Test results taken from patent US11814435B2, “Therapeutic antibodies and their uses” (PFIZER INC., priority 2015, dated 2023).

Legend:
Settings in all cases: 37° C.
hBCMA (human BCMA) = target: T1, hBCMA (human BCMA) (Homo sapiens, UniProt Q02223); test: Kinetics and affinity of hBCMA/human IgG interactions by SPR (Bio-Rad Proteon XPR36); type: binding
T1 sequence (Q02223 1-184): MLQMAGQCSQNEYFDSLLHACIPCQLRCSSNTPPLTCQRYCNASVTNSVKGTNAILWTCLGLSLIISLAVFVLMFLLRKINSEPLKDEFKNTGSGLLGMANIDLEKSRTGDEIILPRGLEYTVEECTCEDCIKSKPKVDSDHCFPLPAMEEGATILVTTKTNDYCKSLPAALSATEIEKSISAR
In short: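 First, antibodies are immobilized by amine coupling onto a GLC sensor chip at 25° C. Next, hBCMA is titrated from 0.08 to 50 nM in one cycle, each injection lasting two minutes, in BSA-supplemented HBS-T+ at 37° C. or 25° C. Finally, dissociation runs two hours before kinetic-titration fitting.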

cyBCMA = test: Kinetics and affinity of cyBCMA/human IgG interactions by SPR (Bio-Rad Proteon XPR36); type: binding, cynomolgus
Cyno BCMA = test: Kinetics and affinity of cyno BCMA/human IgG interactions by SPR (Bio-Rad Proteon XPR36); type: binding, cynomolgus

Molecule | ka (1/Ms) huBCMA @ 37° C. (hBCMA (human BCMA)) | kd (1/s) huBCMA @37° C. (hBCMA (human BCMA)) | ka (1/Ms) cyBCMA @ 37° C. (cyBCMA) | kd (1/s) cyBCMA @37° C. (cyBCMA) | ka Human (hBCMA (human BCMA); human BCMA) | kd Human (hBCMA (human BCMA); human BCMA) | ka Cyno (Cyno BCMA) | kd Cyno (Cyno BCMA)
L3.PY/L3.KY/H2.QR: anti-BCMA antibody (antibody, V domains shown) VH: EVQLLESGGGLVQPGGSLRLSCAASGFTFGSYAMTWVRQAPGKGLEWVSAISGSGGNTFYADQRKGRFTISRDNSKNTLYLQMNSLRAEDTAVYYCARVSPIASGMDYWGQGTLVTVSS VL: EIVLTQSPGTLSLSPGERATLSCRASQSVSSSYLAWYQQKPGQAPRLLIYGASSRATGIPDRFSGSGSGTDFTLTISRLEPEDFAVYYCKYYPYPPSFTFGQGTKVEIK | 2.95e+06 M⁻¹ s⁻¹ | 0.00099 s⁻¹ | 2.05e+06 M⁻¹ s⁻¹ | 0.00774 s⁻¹ |  |  |  | 
L3.PY/L3.KF/H2.QL: anti-BCMA antibody (antibody, V domains shown) VH: EVQLLESGGGLVQPGGSLRLSCAASGFTFGSYAMTWVRQAPGKGLEWVSAISGSGGNTFYADQLKGRFTISRDNSKNTLYLQMNSLRAEDTAVYYCARVSPIASGMDYWGQGTLVTVSS VL: EIVLTQSPGTLSLSPGERATLSCRASQSVSSSYLAWYQQKPGQAPRLLIYGASSRATGIPDRFSGSGSGTDFTLTISRLEPEDFAVYYCKFYPYPPSFTFGQGTKVEIK | 2.07e+06 M⁻¹ s⁻¹ | 0.00125 s⁻¹ | 1.42e+06 M⁻¹ s⁻¹ | 0.0031 s⁻¹ |  |  |  | 
L3.PY/L3.KY/H3.YA: anti-BCMA antibody (antibody, V domains shown) VH: EVQLLESGGGLVQPGGSLRLSCAASGFTFGSYAMTWVRQAPGKGLEWVSAISGSGGNTFYADSVKGRFTISRDNSKNTLYLQMNSLRAEDTAVYYCARVSPIYAGMDYWGQGTLVTVSS VL: EIVLTQSPGTLSLSPGERATLSCRASQSVSSSYLAWYQQKPGQAPRLLIYGASSRATGIPDRFSGSGSGTDFTLTISRLEPEDFAVYYCKYYPYPPSFTFGQGTKVEIK | 3.3e+06 M⁻¹ s⁻¹ | 0.000912 s⁻¹ | 1.84e+06 M⁻¹ s⁻¹ | 0.00428 s⁻¹ |  |  |  | 
L3.PY/L3.KY/H2.YQ: anti-BCMA antibody (antibody, V domains shown) VH: EVQLLESGGGLVQPGGSLRLSCAASGFTFGSYAMTWVRQAPGKGLEWVSAISYQGGNTFYADSVKGRFTISRDNSKNTLYLQMNSLRAEDTAVYYCARVSPIASGMDYWGQGTLVTVSS VL: EIVLTQSPGTLSLSPGERATLSCRASQSVSSSYLAWYQQKPGQAPRLLIYGASSRATGIPDRFSGSGSGTDFTLTISRLEPEDFAVYYCKYYPYPPSFTFGQGTKVEIK | 2.14e+06 M⁻¹ s⁻¹ | 0.00165 s⁻¹ | 1.27e+06 M⁻¹ s⁻¹ | 0.00258 s⁻¹ |  |  |  | 
L3.PY/L3.KF/H2.DY: anti-BCMA antibody (antibody, V domains shown) VH: EVQLLESGGGLVQPGGSLRLSCAASGFTFGSYAMTWVRQAPGKGLEWVSAIDYSGGNTFYADSVKGRFTISRDNSKNTLYLQMNSLRAEDTAVYYCARVSPIASGMDYWGQGTLVTVSS VL: EIVLTQSPGTLSLSPGERATLSCRASQSVSSSYLAWYQQKPGQAPRLLIYGASSRATGIPDRFSGSGSGTDFTLTISRLEPEDFAVYYCKFYPYPPSFTFGQGTKVEIK | 2.74e+06 M⁻¹ s⁻¹ | 0.00182 s⁻¹ | 2.08e+06 M⁻¹ s⁻¹ | 0.00368 s⁻¹ |  |  |  | 
L3.PY/L3.KY/H2.HA: anti-BCMA antibody (antibody, V domains shown) VH: EVQLLESGGGLVQPGGSLRLSCAASGFTFGSYAMTWVRQAPGKGLEWVSAISHAGGNTFYADSVKGRFTISRDNSKNTLYLQMNSLRAEDTAVYYCARVSPIASGMDYWGQGTLVTVSS VL: EIVLTQSPGTLSLSPGERATLSCRASQSVSSSYLAWYQQKPGQAPRLLIYGASSRATGIPDRFSGSGSGTDFTLTISRLEPEDFAVYYCKYYPYPPSFTFGQGTKVEIK | 3.29e+06 M⁻¹ s⁻¹ | 0.00163 s⁻¹ | 2.28e+06 M⁻¹ s⁻¹ | 0.00318 s⁻¹ |  |  |  | 
L3.PY/L3.KY/H2.LT: anti-BCMA antibody (antibody, V domains shown) VH: EVQLLESGGGLVQPGGSLRLSCAASGFTFGSYAMTWVRQAPGKGLEWVSAISLTGGNTFYADSVKGRFTISRDNSKNTLYLQMNSLRAEDTAVYYCARVSPIASGMDYWGQGTLVTVSS VL: EIVLTQSPGTLSLSPGERATLSCRASQSVSSSYLAWYQQKPGQAPRLLIYGASSRATGIPDRFSGSGSGTDFTLTISRLEPEDFAVYYCKYYPYPPSFTFGQGTKVEIK | 2.92e+06 M⁻¹ s⁻¹ | 0.000906 s⁻¹ | 1.82e+06 M⁻¹ s⁻¹ | 0.00232 s⁻¹ |  |  |  | 
L3.PY/L3.KY/H3.TAQ: anti-BCMA antibody (antibody, V domains shown) VH: EVQLLESGGGLVQPGGSLRLSCAASGFTFGSYAMTWVRQAPGKGLEWVSAISGSGGNTFYADSVKGRFTISRDNSKNTLYLQMNSLRAEDTAVYYCTRVSPIAAQMDYWGQGTLVTVSS VL: EIVLTQSPGTLSLSPGERATLSCRASQSVSSSYLAWYQQKPGQAPRLLIYGASSRATGIPDRFSGSGSGTDFTLTISRLEPEDFAVYYCKYYPYPPSFTFGQGTKVEIK | 2.79e+06 M⁻¹ s⁻¹ | 0.000649 s⁻¹ | 1.81e+06 M⁻¹ s⁻¹ | 0.00192 s⁻¹ |  |  |  | 
L3.PY/L3.KY/H2.DY: anti-BCMA antibody (antibody, V domains shown) VH: EVQLLESGGGLVQPGGSLRLSCAASGFTFGSYAMTWVRQAPGKGLEWVSAIDYSGGNTFYADSVKGRFTISRDNSKNTLYLQMNSLRAEDTAVYYCARVSPIASGMDYWGQGTLVTVSS VL: EIVLTQSPGTLSLSPGERATLSCRASQSVSSSYLAWYQQKPGQAPRLLIYGASSRATGIPDRFSGSGSGTDFTLTISRLEPEDFAVYYCKYYPYPPSFTFGQGTKVEIK | 3.19e+06 M⁻¹ s⁻¹ | 0.000642 s⁻¹ | 1.96e+06 M⁻¹ s⁻¹ | 0.00243 s⁻¹ |  |  |  | 
L3.PY/L3.KF/H2.YQ: anti-BCMA antibody (antibody, V domains shown) VH: EVQLLESGGGLVQPGGSLRLSCAASGFTFGSYAMTWVRQAPGKGLEWVSAISYQGGNTFYADSVKGRFTISRDNSKNTLYLQMNSLRAEDTAVYYCARVSPIASGMDYWGQGTLVTVSS VL: EIVLTQSPGTLSLSPGERATLSCRASQSVSSSYLAWYQQKPGQAPRLLIYGASSRATGIPDRFSGSGSGTDFTLTISRLEPEDFAVYYCKFYPYPPSFTFGQGTKVEIK | 1.96e+06 M⁻¹ s⁻¹ | 0.00223 s⁻¹ | 1.41e+06 M⁻¹ s⁻¹ | 0.00501 s⁻¹ |  |  |  | 
L3.PY/L3.KF/H2.LT: anti-BCMA antibody (antibody, V domains shown) VH: EVQLLESGGGLVQPGGSLRLSCAASGFTFGSYAMTWVRQAPGKGLEWVSAISLTGGNTFYADSVKGRFTISRDNSKNTLYLQMNSLRAEDTAVYYCARVSPIASGMDYWGQGTLVTVSS VL: EIVLTQSPGTLSLSPGERATLSCRASQSVSSSYLAWYQQKPGQAPRLLIYGASSRATGIPDRFSGSGSGTDFTLTISRLEPEDFAVYYCKFYPYPPSFTFGQGTKVEIK | 2.75e+06 M⁻¹ s⁻¹ | 0.00191 s⁻¹ | 1.91e+06 M⁻¹ s⁻¹ | 0.00413 s⁻¹ |  |  |  | 
L3.PY/L3.KY/H2.QL: anti-BCMA antibody (antibody, V domains shown) VH: EVQLLESGGGLVQPGGSLRLSCAASGFTFGSYAMTWVRQAPGKGLEWVSAISGSGGNTFYADQLKGRFTISRDNSKNTLYLQMNSLRAEDTAVYYCARVSPIASGMDYWGQGTLVTVSS VL: EIVLTQSPGTLSLSPGERATLSCRASQSVSSSYLAWYQQKPGQAPRLLIYGASSRATGIPDRFSGSGSGTDFTLTISRLEPEDFAVYYCKYYPYPPSFTFGQGTKVEIK | 3.65e+06 M⁻¹ s⁻¹ | 0.00208 s⁻¹ | 2.75e+06 M⁻¹ s⁻¹ | 0.00409 s⁻¹ |  |  |  | 
A02_Rd4_6 nM_C26: anti-BCMA antibody (antibody, V domains shown) VH: EVQLLESGGGLVQPGGSLRLSCAASGFTFSSYAMNWVRQAPGKGLEWVSAISDSGGSTYYADSVKGRFTISRDNSKNTLYLQMNSLRAEDTAVYYCARYWPMSLWGQGTLVTVSS VL: EIVLTQSPGTLSLSPGERATLSCRASQSVSSLYLAWYQQKPGQAPRLLMYDASIRATGIPDRFSGSGSGTDFTLTISRLEPEDFAVYYCQQYQVWPLTFGQGTKVEIK |  |  |  |  | 4.26e+06 M⁻¹ s⁻¹ | 0.000139 s⁻¹ | 2.21e+06 M⁻¹ s⁻¹ | 0.000448 s⁻¹
